Laboratory results from patent publication US20170269069.

What was measured:
[1] = system: rH3 K36 dimethyl-lysine analogue
[2] = system: rH3 K36 monomethyl-lysine analogue
[3] = system: rH3 K4 monomethyl-lysine analogue
[4] = system: rH3 K9 trimethyl-lysine analogue
[5] = system: rH3 K9 dimethyl-lysine analogue
[6] = system: rH3 K36 trimethyl-lysine analogue
[7] = system: recombinant histone H3, wild type
[8] = system: reconstituted native nucleosome arrays (modified native histones purified from HeLa cells)
[9] = system: rH3 K27 monomethyl-lysine analogue
[10] = system: rH3 K18 acetyl-lysine analogue
[11] = system: rH3 K9 monomethyl-lysine analogue
[12] = system: nucleosome arrays containing unmodified rH3
[13] = system: rH3 K4 trimethyl-lysine analogue
[14] = system: nucleosome arrays containing the rH3 K18 acetyl-lysine analogue
[15] = system: H3 peptide (aa10-35) K18ac
[16] = system: rH3 K4 dimethyl-lysine analogue
[17] = system: rH3 K27 trimethyl-lysine analogue
[18] = system: rH3 K27 dimethyl-lysine analogue

Sequence of recombinant MMP-9 (aa115-730) (chain, as listed by the source): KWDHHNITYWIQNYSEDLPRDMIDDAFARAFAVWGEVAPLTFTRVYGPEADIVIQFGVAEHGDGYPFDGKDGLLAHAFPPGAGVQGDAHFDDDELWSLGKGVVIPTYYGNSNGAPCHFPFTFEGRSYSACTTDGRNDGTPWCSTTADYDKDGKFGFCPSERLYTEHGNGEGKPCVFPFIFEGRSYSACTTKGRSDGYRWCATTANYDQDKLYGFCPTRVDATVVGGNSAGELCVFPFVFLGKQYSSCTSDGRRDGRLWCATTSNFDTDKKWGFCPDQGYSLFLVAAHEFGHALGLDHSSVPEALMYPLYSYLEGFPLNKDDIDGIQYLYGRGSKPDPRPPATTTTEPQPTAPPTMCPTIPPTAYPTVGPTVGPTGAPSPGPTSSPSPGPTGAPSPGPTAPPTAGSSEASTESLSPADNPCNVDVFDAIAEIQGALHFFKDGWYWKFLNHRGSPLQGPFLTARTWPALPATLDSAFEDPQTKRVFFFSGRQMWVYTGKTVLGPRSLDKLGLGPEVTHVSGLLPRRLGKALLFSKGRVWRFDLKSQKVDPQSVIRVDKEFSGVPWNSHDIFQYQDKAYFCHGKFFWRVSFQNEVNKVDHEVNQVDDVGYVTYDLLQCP

Substance	MMP-9 activity (in vitro H3NT cleavage assay) [1]	MMP-9 activity (in vitro H3NT cleavage assay) [2]	MMP-9 activity (in vitro H3NT cleavage assay) [3]	MMP-9 activity (in vitro H3NT cleavage assay) [4]	MMP-9 activity (in vitro H3NT cleavage assay) [5]	MMP-9 activity (in vitro H3NT cleavage assay) [6]	H3NT protease activity (in vitro H3NT cleavage assay, Western blot with the H3CT antibody) [7]	rMMP-9 protease activity (in vitro H3NT cleavage assay) [8]	MMP-9 activity (in vitro H3NT cleavage assay) [9]	H3NT proteolysis (in vitro H3NT cleavage assay) [10]	MMP-9 activity (in vitro H3NT cleavage assay) [11]	rMMP-9 protease activity (in vitro H3NT cleavage assay) [12]	MMP-9 activity (in vitro H3NT cleavage assay) [13]	H3NT cleavage (in vitro H3NT cleavage assay) [14]	cleaved H3 (peptide hydrolysis measured with fluorescamine; kinetic analysis), against unmodified H3 or H3K27me1 peptides [15]	MMP-9 activity (in vitro H3NT cleavage assay) [16]	MMP-9 activity (in vitro H3NT cleavage assay) [17]	MMP-9 activity (in vitro H3NT cleavage assay) [18]
recombinant MMP-9 (aa115-730)	nearly identical to rH3 control in all cases	nearly identical to rH3 control in all cases	nearly identical to rH3 control in all cases	nearly identical to rH3 control in all cases	nearly identical to rH3 control in all cases	nearly identical to rH3 control in all cases	only rMMP-9 possessed H3NT protease activity	rMMP-9 displayed robust activity for modified native nucleosome arrays	nearly identical to rH3 control in all cases	the specific acetylation of K18 robustly increased H3NT proteolysis by rMMP-9	nearly identical to rH3 control in all cases	completely resistant to rMMP-9 protease activity	nearly identical to rH3 control in all cases	the specific acetylation of H3K18 was both necessary and sufficient for H3NT cleavage by rMMP-9 in a nucleosome array context	3-fold increase of cleaved H3 compared to unmodified H3 or H3K27me1 peptides	nearly identical to rH3 control in all cases	nearly identical to rH3 control in all cases	nearly identical to rH3 control in all cases
recombinant USP14							only rMMP-9 possessed H3NT protease activity											
